For the series, the target named is TIMP-1 (tissue inhibitor of metalloproteinases 1) (human, UniProt P01033 24-207). The experiment in a line: BLI; DPBS + 0.025% Tween 20; kon 1.30e6 M-1 s-1, koff 5.36e-4 s-1; 1:1 with mass transport; DPBS (138 mM NaCl, 2.67 mM KCl, 8.1 mM Na2HPO4, 1.47 mM KH2PO4, 1 mM CaCl2, 0.5 mM MgCl2); BLI with 0.025% Tween 20; pH and temperature not stated. Conditions: protein: commercial; tags: His; label: biotin (BLI); hairpin. (Biolayer interferometry detects binding as a change in optical thickness at a sensor tip.)
Sequence of TIMP-1 (tissue inhibitor of metalloproteinases 1) (P01033 24-207): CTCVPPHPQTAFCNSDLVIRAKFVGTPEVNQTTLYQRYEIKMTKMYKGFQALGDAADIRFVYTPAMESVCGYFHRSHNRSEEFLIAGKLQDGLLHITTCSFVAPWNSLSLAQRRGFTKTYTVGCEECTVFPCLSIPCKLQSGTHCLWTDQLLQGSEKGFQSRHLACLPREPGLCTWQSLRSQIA

B1: Apt-4 (ssDNA)
DNA: CACGCATAGCGCCCCAACCCCAGTCGATGAAATTGCGTCGCGGGTGCCTATGCGTG
In the case of B1, the dissociation constant (Kd) was found to be 0.41 nM.

What is called Kd is the concentration at which binding is half-saturated.

The values are drawn from PMC11750923, “High-affinity ssDNA aptamer and chemiluminescent aptasensor for TIMP-1 detection in human serum”.
